For one assay, the target named is cdc2/cyclin B complex (UniProt P06493). Kind of assay: cell-based or functional assay.
The target of a further assay is CDK4/cyclin D1 complex (UniProt P11802). Kind of assay: cell-based or functional assay.
Chain of CDK4/cyclin D1 complex (P11802 whole entry, chain 1 of 2): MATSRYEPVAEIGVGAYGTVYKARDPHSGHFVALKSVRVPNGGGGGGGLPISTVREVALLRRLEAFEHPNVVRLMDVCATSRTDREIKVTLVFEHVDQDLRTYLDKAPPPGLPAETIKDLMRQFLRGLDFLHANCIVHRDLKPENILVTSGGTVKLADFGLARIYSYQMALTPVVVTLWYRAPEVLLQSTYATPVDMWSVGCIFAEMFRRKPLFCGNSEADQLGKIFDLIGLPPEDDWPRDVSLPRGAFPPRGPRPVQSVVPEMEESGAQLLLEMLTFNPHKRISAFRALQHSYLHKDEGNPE
Chain of CDK4/cyclin D1 complex (P24385 whole entry, chain 2 of 2, further chain): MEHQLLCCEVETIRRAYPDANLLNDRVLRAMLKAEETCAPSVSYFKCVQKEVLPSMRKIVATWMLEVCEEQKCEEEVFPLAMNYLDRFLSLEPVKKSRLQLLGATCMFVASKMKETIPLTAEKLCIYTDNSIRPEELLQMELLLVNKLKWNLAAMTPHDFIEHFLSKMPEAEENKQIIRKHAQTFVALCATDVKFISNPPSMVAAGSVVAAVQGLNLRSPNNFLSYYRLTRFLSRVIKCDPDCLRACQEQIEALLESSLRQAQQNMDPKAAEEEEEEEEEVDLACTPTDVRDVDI

Chain of cdc2/cyclin B complex (P06493 whole entry, one chain of several): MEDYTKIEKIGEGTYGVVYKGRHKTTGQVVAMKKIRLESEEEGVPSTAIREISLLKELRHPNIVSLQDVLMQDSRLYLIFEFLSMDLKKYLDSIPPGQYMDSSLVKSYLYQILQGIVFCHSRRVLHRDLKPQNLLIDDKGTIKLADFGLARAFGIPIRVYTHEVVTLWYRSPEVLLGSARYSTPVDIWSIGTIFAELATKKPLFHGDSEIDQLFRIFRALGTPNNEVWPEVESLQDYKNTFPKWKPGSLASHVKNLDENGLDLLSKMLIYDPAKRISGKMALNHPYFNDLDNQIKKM

Turning to p27 (from UniProt P46527 1-198), the results for the IC50 of in vitro kinase assay (32P incorporation into Gst-Rb) with cdc2/cyclin B complex and in the assay with CDK4/cyclin D1 complex were 20 nM and 63 nM, respectively.
